Results from paper PMC8856988.

Columns and labels:
[1] = target: Skeletal muscle myosin (rabbit) (rabbit); assay: BLI; SkM immobilised on Octet Red Amine Reactive Second-Generation Biosensor; FXI or PK in solution; 30 mM Hepes, pH 7.4, 0.01% Tween-20, 0.1% PEG, 50 mM NaCl, 30 °C
[2] = target: Skeletal muscle myosin (rabbit) (rabbit); assay: ELISA; SkM immobilised on microtiter plate; diluted pooled plasma (endogenous FXI) in 30 mM Hepes, pH 7.4, 130 mM NaCl, 2 h, room temperature; bound FXI detected with anti-FXI mAb AHXI-5061, calculated from the curve of purified FXI; apparent
[3] = target: Skeletal muscle myosin (rabbit) (rabbit); assay: ELISA; SkM (10 μg/ml, sodium bicarbonate pH 9.3) immobilised on microtiter plate, blocked with 0.5% BSA; purified FXI 0–10 nM in 30 mM Hepes, pH 7.4, 130 mM NaCl, 2 h, room temperature; bound FXI detected with anti-FXI mAb AHXI-5061 and HRP-goat antimouse; apparent

Sequence of Skeletal muscle myosin (rabbit) (rabbit) (Q28641 whole entry, chain 1 of 3): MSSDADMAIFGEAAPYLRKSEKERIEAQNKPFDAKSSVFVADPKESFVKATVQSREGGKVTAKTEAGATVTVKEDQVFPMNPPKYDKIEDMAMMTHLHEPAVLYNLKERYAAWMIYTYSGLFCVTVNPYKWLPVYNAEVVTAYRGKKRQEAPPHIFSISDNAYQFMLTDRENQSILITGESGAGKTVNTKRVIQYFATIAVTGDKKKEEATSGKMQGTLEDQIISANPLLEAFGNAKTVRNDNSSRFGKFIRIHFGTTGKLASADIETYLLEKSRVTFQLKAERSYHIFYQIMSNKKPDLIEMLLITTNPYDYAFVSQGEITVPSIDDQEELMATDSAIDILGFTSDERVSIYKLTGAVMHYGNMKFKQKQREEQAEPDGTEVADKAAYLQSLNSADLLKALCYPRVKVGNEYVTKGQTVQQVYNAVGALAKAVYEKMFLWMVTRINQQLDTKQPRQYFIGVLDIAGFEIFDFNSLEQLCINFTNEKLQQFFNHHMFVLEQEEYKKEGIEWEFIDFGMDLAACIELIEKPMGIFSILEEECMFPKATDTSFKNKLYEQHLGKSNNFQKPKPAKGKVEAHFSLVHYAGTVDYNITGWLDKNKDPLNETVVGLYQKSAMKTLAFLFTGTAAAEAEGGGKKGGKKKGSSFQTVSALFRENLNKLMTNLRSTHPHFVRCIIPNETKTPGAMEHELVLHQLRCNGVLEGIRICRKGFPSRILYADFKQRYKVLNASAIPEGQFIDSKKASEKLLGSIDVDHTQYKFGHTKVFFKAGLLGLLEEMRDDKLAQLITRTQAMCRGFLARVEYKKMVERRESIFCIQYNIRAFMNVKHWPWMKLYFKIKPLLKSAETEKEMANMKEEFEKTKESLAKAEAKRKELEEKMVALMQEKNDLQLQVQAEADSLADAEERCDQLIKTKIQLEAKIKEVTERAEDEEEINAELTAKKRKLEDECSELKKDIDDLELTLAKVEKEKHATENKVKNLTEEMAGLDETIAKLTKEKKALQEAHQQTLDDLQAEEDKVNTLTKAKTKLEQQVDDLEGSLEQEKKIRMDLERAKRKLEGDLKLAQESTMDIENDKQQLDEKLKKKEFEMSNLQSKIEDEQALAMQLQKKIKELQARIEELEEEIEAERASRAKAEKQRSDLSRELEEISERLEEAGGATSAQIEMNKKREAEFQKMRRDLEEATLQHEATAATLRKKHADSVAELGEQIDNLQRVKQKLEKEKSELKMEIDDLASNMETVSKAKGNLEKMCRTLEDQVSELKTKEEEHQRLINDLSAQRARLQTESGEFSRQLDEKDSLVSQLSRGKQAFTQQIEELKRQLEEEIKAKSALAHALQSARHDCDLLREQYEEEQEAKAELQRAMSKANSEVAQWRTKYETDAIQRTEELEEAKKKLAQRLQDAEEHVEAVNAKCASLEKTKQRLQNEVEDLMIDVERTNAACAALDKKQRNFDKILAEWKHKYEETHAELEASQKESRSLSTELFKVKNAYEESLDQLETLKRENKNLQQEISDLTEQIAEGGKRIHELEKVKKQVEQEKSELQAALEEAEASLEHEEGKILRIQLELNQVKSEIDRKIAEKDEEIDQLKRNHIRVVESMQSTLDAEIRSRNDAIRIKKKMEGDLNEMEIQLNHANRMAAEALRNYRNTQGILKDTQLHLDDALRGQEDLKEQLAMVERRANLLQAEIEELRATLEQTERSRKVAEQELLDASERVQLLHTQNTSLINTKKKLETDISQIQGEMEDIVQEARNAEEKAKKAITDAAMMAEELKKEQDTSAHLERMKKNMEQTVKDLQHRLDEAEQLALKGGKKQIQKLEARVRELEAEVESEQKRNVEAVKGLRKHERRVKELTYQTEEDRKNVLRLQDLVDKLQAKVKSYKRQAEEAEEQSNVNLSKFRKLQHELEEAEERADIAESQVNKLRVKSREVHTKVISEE
Sequence of Skeletal muscle myosin (rabbit) (rabbit) (P02602 2-192, chain 2 of 3, further chain): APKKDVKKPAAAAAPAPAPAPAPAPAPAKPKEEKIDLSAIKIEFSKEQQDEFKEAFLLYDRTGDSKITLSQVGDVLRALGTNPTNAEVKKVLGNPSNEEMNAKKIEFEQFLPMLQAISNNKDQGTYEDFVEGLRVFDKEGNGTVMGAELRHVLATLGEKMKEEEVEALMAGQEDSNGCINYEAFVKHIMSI
Sequence of Skeletal muscle myosin (rabbit) (rabbit) (P02608 2-170, chain 3 of 3, further chain): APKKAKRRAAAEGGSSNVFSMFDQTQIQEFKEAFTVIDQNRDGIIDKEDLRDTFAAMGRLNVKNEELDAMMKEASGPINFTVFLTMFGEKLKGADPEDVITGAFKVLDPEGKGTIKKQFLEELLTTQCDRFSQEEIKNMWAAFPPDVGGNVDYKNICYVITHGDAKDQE

Coagulation factor XI (natural protein)
Kd [1]: 0.2 nM
koff [1]: 0.000795 s⁻¹
kon [1]: 3.87e+06 M⁻¹ s⁻¹
Kd [2]: 0.7 nM
Kd [3]: 1.7 nM
